# Laboratory results reported in patent US20210244768A1, “CELL COMPOSITIONS AND USES THEREOF” (THE UNIVERSITY OF SYDNEY, priority 2018, published 2021).
# B1: BMP4: agent which induces BMP signalling, added during GABAergic differentiation of hiPSCs (protein, UniProt P12644 293-408, looked up)
# Bone morphogenetic protein 4: SPKHHSQRARKKNKNCRRHSLYVDFSDVGWNDWIVAPPGYQAFYCHGDCPFPLADHLNSTNHAIVQTLVNSVNSSIPKACCVPTELSAISMLYLDEYDKVVLKNYQEMVVEGCGCR
# Tests used:
# SST expression = assay: qPCR of SST expression in hiPSC-GABA neurons exposed to BMP4; format: cell-based, human; conditions: BMP4 exposure during either or both of weeks 3 and 4
# Protocol: (§1) After quantification, 1 μg of RNA was retrotranscribed with Superscript III First-Strand Synthesis SuperMix for qRT-PCR (Thermo Fisher Scientific Life Sciences). A total of 2 μl of cDNA was used for qPCR using the SYBR Select Master Mix. Real-Time PCR was run on a LightCycler 480 Instrument II (Roche Life Science). The cycling program for all genes is the following: • 1. 95° C. 10′ Initial denaturation step • 2. 95° C. 30″ • 3. 58° C. 30″ • 4. 72° C. 30″ go to 2 for 35 cycles • 5. Melting curve analysis.
# (§2) iGABAergic neurons were prepared according to an adaptation of the method described in Example 5. During the GABAergic differentiation protocol, hiPSCs were exposed to BMP4, during week 3 only (i.e. about DIV14 to about DIV21), week 4 only (i.e. about DIV21 to about DIV28) or during week 3 and week 4 (i.e. about DIV14 to about DIV28). Following differentiation (i.e. DIV28) the iGABAergic neurons were assessed for expression of somatostatin (SST) and Parvalbumin (PVALB). BMP4 treated cells were then be tested for their ability to reverse neuropathic pain and compared to non-treated iGABAergic neurons using the SNI model as hereinbefore described.
# PAVB expression = assay: qPCR of PAVB expression in hiPSC-GABA neurons exposed to BMP4; format: cell-based, human; conditions: BMP4 exposure during week 3 (about DIV14 to DIV21); not with week 4 or weeks 3 and 4
# Protocol: as §1, §2
molecule,measurement,setting,value
B1,reduction of SST expression,SST expression,50%
same,increase of PAVB expression,PAVB expression,6 fold
